T1: PSGL-1a peptide
T1 chain: QATEYEYLDYDFLPEC

T2: PSGL-1b peptide
T2 chain: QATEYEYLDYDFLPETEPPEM

B1: soluble recombinant human GalNAc-T1 (pAcGP67-GalNAc-T1-sol) (protein)
chain: GLPAGDVLEPVQKPHEGPGEMGKPVVIPKEDQEKMKEMFKINQFNLMASEMIALNRSLPDVRLEGCKTKVYPDNLPTTSVVIVFHNEAWSTLLRTVHSVINRSPRHMIEEIVLVDDASERDFLKRPLESYVKKLKVPVHVIRMEQRSGLIRARLKGAAVSKGQVITFLDAHCECTVGWLEPLLARIKHDRRTVVCPIIDVISDDTFEYMAGSDMTYGGFNWKLNFRWYPVPQREMDRRKGDRTLPVRTPTMAGGLFSIDRDYFQEIGTYDAGMDIWGGENLEISFRIWQCGGTLEIVTCSHVGHVFRKATPYTFPGGTGQIINKNNRRLAEVWMDEFKNFFYIISPGVTKVDYGDISSRVGLRHKLQCKPFSWYLENIYPDSQIPRHYFSLGEIRNVETNQCLDNMARKENEKVGIFNCHGMGGNQVFSYTANKEIRTDDLCLDVSKLNGPVTMLKCHHLKGNQLWEYDPVKLTLQHVNSNQCLDKATEEDSQVPSIRDCNGSRSQQWLLRNVTLPEIF
B2: soluble recombinant human GalNAc-T3 (pAcGP67-GalNAc-T3-sol) (protein)
chain: MERNMKNKNKMLDLMLEAVNNIKDAMPKMQIGAPVRQNIDAGERPCLQGYYTAAELKPVLDRPPQDSNAPGASGKAFKTTNLSVEEQKEKERGEAKHCFNAFASDRISLHRDLGPDTRPPECIEQKFKRCPPLPTTSVIIVFHNEAWSTLLRTVHSVLYSSPAILLKEIILVDDASVDEYLHDKLDEYVKQFSIVKIVRQRERKGLITARLLGATVATAETLTFLDAHCECFYGWLEPLLARIAENYTAVVSPDIASIDLNTFEFNKPSPYGSNHNRGNFDWSLSFGWESLPDHEKQRRKDETYPIKTPTFAGGLFSISKEYFEYIGSYDEEMEIWGGENIEMSFRVWQCGGQLEIMPCSVVGHVFRSKSPHSFPKGTQVIARNQVRLAEVWMDEYKEIFYRRNTDAAKIVKQKAFGDLSKRFEIKHRLQCKNFTWYLNNIYPEVYVPDLNPVISGYIKSVGQPLCLDVGENNQGGKPLIMYTCHGLGGNQYFEYSAQHEIRHNIQKELCLHAAQGLVQLKACTYKGHKTVVTGEQIWEIQKDQLLYNPFLKMCLSANGEHPSLVSCNPSDPLQKWILSQND

What was measured:
[1] = molecular target: EA2 peptide
[2] = molecular target: Muc7 peptide
[3] = molecular target: T1, PSGL-1a peptide
[4] = molecular target: T2, PSGL-1b peptide

| Protein | Km for acceptor substrate [1] | Vmax [1] | Km for acceptor substrate [2] | Vmax [2] | GalNAc-transferase activity [3] | GalNAc-transferase activity [4] | Km for acceptor substrate [4] |
| --- | --- | --- | --- | --- | --- | --- | --- |
| B1 | 0.07 mM | 0.99 nmol/min/µg | 0.04 mM | 0.76 nmol/min/µg | exhibited poor activities with both peptide designs | exhibited poor activities with both peptide designs | > 2 mM |
| B2 | – | – | – | – | exhibited poor activities with both peptide designs | exhibited poor activities with both peptide designs | – |
